Source: the supplement of paper PMC9170038

System: K4 kissing-loop RNA reporter
Test: apparent KD of K4 kissing-loop reporter; higher = weaker reporter binding
Settings: Eterna round: R107
Protocol: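 RNA-MaP round R107: designed RNA switches with theophylline, tryptophan, arginine or FMN aptamers are transcribed on-chip within common flanks. They are titrated with a labelled K4 kissing-loop RNA reporter in RNA-MaP buffer (100 mM Tris pH 7.5, 80 mM KCl, 4 mM MgCl2), without ligand or with the indicated ligand. Median apparent KD per design.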

[1] = input ligand: theophylline 20 uM
[2] = input ligand: tryptophan 2.4 mM
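Further: bound reporter read as fluorescence of individual clusters on recovered sequencing chips by microscopy, with normalized cluster intensities fitted with a binding model.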

Sequence	apparent KD of K4 kissing-loop reporter (input ligand: FMN 200 uM)	apparent KD of K4 kissing-loop reporter (input ligand: arginine 13.2 mM)	apparent KD of K4 kissing-loop reporter (input ligand: none)	apparent KD of K4 kissing-loop reporter [1]	apparent KD of K4 kissing-loop reporter [2]
CGUUCAUCCUAGGCGUGAGUGAUGUUUACCCGAGGACCGGUACGGCCGCCACUCGUAUGGCGAGAGUUUAGCCAUUUCCAAUAUA [theeternabot_exclusion_KL_Trp_A_17]	465 nM	403 nM	503 nM	505 nM	398 nM
CGUUUCUCUGUCGAUACCAGCUUCAGUUGGCGGCCAGUGAUGUUGGUAUCGCCGAUGCCAAGCCCUUGGCAGCGACAUGAGACCC [Gezausin]	169 nM	163 nM	193 nM	128 nM	166 nM
CUAUCUUAAGAAGGAUAUUAUGUAACAAACGCAGGCGUAUUAGAAUCAGUGAUGUUGAAAUAGGUUUAAGAAGGUCUUAAAGAAA [theeternabot_sameState_KL_FMN_B_31]	593 nM	422 nM	326 nM	608 nM	243 nM
CUCCGACUAUCGGCCGCCACUAUCGGAAAGUCCACGGACAUUCAAUGCAGUUAGUGAUGUUAACGUAGGACCGGGAUGAUUUGUA [theeternabot_sameState_KL_Trp_B_9]	543 nM	350 nM	659 nM	541 nM	491 nM
CUCGAGUGAUGUUCGAUUAUUUAUACAGAUACCAGUGAAUUUUAACACCCUUGGCAGCUGGUUGUAUCAUUGUUUUUUACAAAAG [JR_ExcTheophyA_Sub007]	113 nM	167 nM	117 nM	195 nM	100 nM
CUCGUGGGUUUGAGAGGGUUUGUGGGAAGUGAGGAUAUUUAGGGAGAAAGAAGGCACUAUAAAAUAUAGUGAUGUUAUAUAAGGG [SSFMNA.L]	277 nM	141 nM	325 nM	194 nM	198 nM
CUCUUCUUUCUUUUAGUGAUGUUAAAUUAGCGAGGACCGGUACGGCCGCCACUCGUAUAGCUGGAAUGACUGUGCGAGGGUUUGU	960 nM	514 nM	905 nM	522 nM	790 nM
CUGACUCAAUAGUCAGUGAUGUUGACUGGACGAGGACCGGUACGGCCGCCACUCGAGAGUGGUGUAAAAUAUGUCACAGAGUCAG [Tryp A SS t3b]	186 nM	194 nM	208 nM	182 nM	200 nM
CUGCAACAUAACUUCUUCGUCCUAGAAGACUAGGAUAUCAGGAAACUGAGAAGGAGUCUCUGCAGUGAUGUUGCAGCUAGGACGA [[K]'-[F2]'-[F1]'-[F1]-[F2]-[K1]-[K2]-[F]''_Design3]	195 nM	159 nM	148 nM	197 nM	173 nM
CUGGGUUGACGAAAAGUCAACAAAAGAGAAGGAGCGCACGAAAGUGCAGGUAGGUCGCUCAGUCCAGUGAUGUUGGAUCAUCCAG [#SwitchBubble 11 #K4Late]	324 nM	502 nM	484 nM	454 nM	346 nM
CUGUUUGGUUGAGAGGUUGGGCGGAAUGAUACCAGUAUAUAAGAAUACCCUUGGCAGCAUAAGAAAGAUAUAGUGAUGUUGUAUA [SSTheophA.K]	526 nM	297 nM	464 nM	536 nM	417 nM
CUUAGGAGUGGUGUUGAUUAGGGAGCGGAAGGAGCGCCAAUGAUGGCAGGUAGGUCGCCGGAAUAUAGUGAUGUUAUAUAGAGGG [ExArgA.Q]	273 nM	252 nM	592 nM	290 nM	222 nM
CUUAUGGCGUUUGGAAGGAGCGGCUCAUCACGAGGACCGGUACGGCCGCCACUCGAGAGAGCAUAAGAAAGUGAUGUUUUCGGUU [theeternabot_sameState_KL_Trp_A_44]	517 nM	415 nM	496 nM	395 nM	314 nM
CUUCGAUUAACGGAUACCAGUCACUUGGGAGCCACACACAAGUGAGUGAUGUUCACUUGUGACCCUUGGCAGCCGUUAGUCGAAG [#05 K4 Theophylline B Exclusion]	106 nM	85 nM	99.4 nM	157 nM	97.9 nM
CUUGGAAGGACGGCCGCCACUGGGCAGUGAUGUUGCCCGAGUUGGUAACGCAGUGAUGUUGCGUCCAGGACCGGGUCCUAGGAAU [Exclusion Tryptophan B GF 25]	141 nM	113 nM	112 nM	106 nM	139 nM
GAAUAAUAAGUAGCAGUGAUGUUGCUACUACGAGGACCGGUACGGCCGCCACUCGAAUACGAGUGGACACUGCUACUACCACUCG [(H1)-(H2)-(Trp1)-(Trp2)-(T)'-(H)'-(T)''_Design8]	121 nM	118 nM	121 nM	122 nM	170 nM
GAAUCAUGUAGAAGGAGCGUUAGAAGUUAUAGGGAUGAGUGAUGUUUGUGUUAGUAAAUCUGACAGGUAGGUCGCUACAGAAGGA [KL-SSArg B21 #analogue]	712 nM	258 nM	607 nM	132 nM	308 nM
GAAUUAUGUAGAAGGAGCGUCAGAAGGUAUAGGUGCGAGUGAUGUUUGGACCUGUUAAUUUGACAGGUAGGUCGCUACAGAAGGA [KL-SSArg B20 #analogue]	533 nM	291 nM	448 nM	304 nM	320 nM
GAGAUGCACCAGUCUUAACGUGACUUAUCCCGAGGACCGGUACGGCCGCCACUCGCGUACUACUAGUGAUGUUGGUCAGUAUGAG [theeternabot_sameState_KL_Trp_A_26]	244 nM	185 nM	215 nM	223 nM	235 nM
GAGCCAGAGGUUGCUGCGGGUUUCAGAGAUACCAGCCGUAUUGUAGGCCCUUGGCAGCUCGAGUGAUGUUCGAGCCGCCUCUGGC [Eredorxela]	111 nM	102 nM	120 nM	129 nM	109 nM
GAGGAUAGCGGAAGGAGCGAGUAAUGGAGUGAUGUUCCAAUCAAUAAAACACGAUAGAGUGCUCAGGUAGGUCGCCGUGGUGGUU [Exclusion Argiie B GF 13]	124 nM	143 nM	165 nM	277 nM	111 nM
